Results reported in paper PMC4627068 (Nucleic Acids Research, 2015).

Legend:
[1] = biological target: the molecule itself; experiment: far-Western, overlay or dot blot
[2] = biological target: β' subunit of Bacillus subtilis RNAP-σ^A (Bacillus subtilis, UniProt P37871 1-1199); experiment: far-Western, overlay or dot blot
β' subunit of Bacillus subtilis RNAP-σ^A, sequence (P37871 whole entry): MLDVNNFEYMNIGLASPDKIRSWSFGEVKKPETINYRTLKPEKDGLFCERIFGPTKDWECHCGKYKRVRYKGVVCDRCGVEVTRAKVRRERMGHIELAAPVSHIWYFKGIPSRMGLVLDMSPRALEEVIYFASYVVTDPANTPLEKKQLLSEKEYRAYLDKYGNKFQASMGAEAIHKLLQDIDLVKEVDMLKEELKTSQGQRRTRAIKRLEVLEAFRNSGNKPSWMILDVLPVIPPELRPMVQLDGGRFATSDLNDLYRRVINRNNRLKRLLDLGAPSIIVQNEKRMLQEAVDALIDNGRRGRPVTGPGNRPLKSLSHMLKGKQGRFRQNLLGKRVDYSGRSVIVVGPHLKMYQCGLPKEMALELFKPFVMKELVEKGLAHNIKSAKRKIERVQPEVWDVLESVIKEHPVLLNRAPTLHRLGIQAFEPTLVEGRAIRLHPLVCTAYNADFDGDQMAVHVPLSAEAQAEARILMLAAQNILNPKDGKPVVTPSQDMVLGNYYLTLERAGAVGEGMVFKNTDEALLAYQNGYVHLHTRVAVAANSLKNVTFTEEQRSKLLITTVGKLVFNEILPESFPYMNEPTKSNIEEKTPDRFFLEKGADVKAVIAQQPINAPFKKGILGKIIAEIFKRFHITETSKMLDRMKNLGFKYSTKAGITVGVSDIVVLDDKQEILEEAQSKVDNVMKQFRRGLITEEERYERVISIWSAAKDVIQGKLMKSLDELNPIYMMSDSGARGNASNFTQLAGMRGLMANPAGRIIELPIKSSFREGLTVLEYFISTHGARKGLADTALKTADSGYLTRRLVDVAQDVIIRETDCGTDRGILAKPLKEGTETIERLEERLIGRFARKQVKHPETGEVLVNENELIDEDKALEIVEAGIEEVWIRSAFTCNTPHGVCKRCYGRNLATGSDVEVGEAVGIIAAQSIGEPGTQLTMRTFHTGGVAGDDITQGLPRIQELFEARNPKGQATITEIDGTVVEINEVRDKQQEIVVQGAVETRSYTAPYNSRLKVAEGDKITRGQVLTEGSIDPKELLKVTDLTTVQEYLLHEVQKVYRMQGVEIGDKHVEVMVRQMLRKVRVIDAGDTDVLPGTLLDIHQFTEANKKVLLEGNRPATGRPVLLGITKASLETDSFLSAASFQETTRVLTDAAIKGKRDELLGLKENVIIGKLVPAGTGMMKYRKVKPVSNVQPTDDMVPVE

B1: ω2 (homodimeric form of the plasmid pSM19035 ω protein) (natural protein, Streptococcus pyogenes, UniProt Q57468 1-71, looked up)
chain: MIVGNLGAQKAKRNDTPISAKKDIMGDKTVRVRADLHHIIKIETAKNGGNVKEVMDQALEEYIRKYLPDKL
binding result [1]: binds
binding result [2]: binds
